Data on 29 sequences can be found in the supplement of paper PMC10567573.

A short description of the data set: protein stability index of a GFP-peptide fusion (GPS, HEK-293T) (PSI 1-6); higher = more stable. To be noted: c terminus: a fixed tail appended.

± gives the standard deviation.
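Note: 24-mer peptide tiles fused after GFP, lentivirally expressed, FACS-sorted into six equal bins by GFP/DsRed ratio, decoded by Illumina sequencing, PSI is the read-weighted mean bin number.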

Turning to EMLAAACQMFLGKTEAEIAHIALE [FLOT1], the protein stability index reads like this: (treatment: DMSO) 3.15 ± 0.81; (treatment: MLN4924 1 uM, 8 h) 2.78 ± 0.34.
The like results for EESRDPTLYANNVQRVMAQALGIP [LPCAT4] were, in that order, 3.71 ± 0.39 and 3.89 ± 0.33.
In turn, QVPRSPVIKISYSTPQGKGEVVKI [PWWP2B] had a protein stability index (treatment: DMSO) of 2.73 ± 0.26 and a protein stability index (treatment: MLN4924 1 uM, 8 h) of 2.58 ± 0.26.
Regarding ETQNAFLNERKQASAIKKEELVAR [CHGB], the protein stability index is, setting by setting: (treatment: DMSO) 3.57 ± 0.12; (treatment: MLN4924 1 uM, 8 h) 3.77 ± 0.24.
The like results for TIVNFPITNVDLREYLSEEVQAVH [USP39] were, in that order, 2.92 ± 0.18 and 3.41 ± 0.41.
As for ILPKELQTWVRDHHPENGEEAVTV [ZNF24], the protein stability index is, setting by setting: (treatment: DMSO) 3.92 ± 0.17; (treatment: MLN4924 1 uM, 8 h) 4.17 ± 0.25.
With RGLRGEPGPQGSAGQRGEPGPKGD [EMID1], the protein stability index came to 5.19 ± 0.4 (treatment: DMSO) and 5.41 ± 0.6 (treatment: MLN4924 1 uM, 8 h).
As to ADFESEDEGEEFDDWEDDYDYPEE [EID1], the protein stability index (treatment: DMSO) came to 4.62 ± 0.29 and the protein stability index (treatment: MLN4924 1 uM, 8 h) worked out at 4.87 ± 0.35.
Taken in the same sequence, the figures for KFLIWDTAGQERFRALAPMYYRGS [RAB22A] were 2.39 ± 0.23 and 2.55 ± 0.33.
Consider GIIRCPDGISIPELREACDYLCIS [BTBD10], for which the protein stability index by setting is: (treatment: DMSO) 2.36 ± 0.35; (treatment: MLN4924 1 uM, 8 h) 2.5 ± 0.2.
Taken in the same sequence, the figures for TVQIICNTGYRLQNNENNISCVER [CFHR2] were 2.44 ± 0.4 and 2.64 ± 0.25.
Taken in the same sequence, the figures for SMGFSARYNFTPDPDFKDLGALKP [NETO1] were 3.02 ± 0.33 and 3.26 ± 0.17.
The like results for IQPDDLINQLTFIMDANQTYLVSE [FAF2] were, in that order, 2.32 ± 0.27 and 2.37 ± 0.31.
Regarding LQSEPHRAGVQWKFAGSFYFAITV [KCNK9], the protein stability index was 3.47 ± 0.43 (treatment: DMSO) and 2.82 ± 0.81 (treatment: MLN4924 1 uM, 8 h).
Taken in the same sequence, the figures for MTGLALKHMFERSFTQGEGARPLS [MATN2] were 2.69 ± 0.28 and 2.93 ± 0.42.
In the case of LLDQIREGAQLKKVEQNSRPVSCS [WASL], the protein stability index stood at 4.852 ± 0.026 (treatment: DMSO) and 4.63 ± 0.24 (treatment: MLN4924 1 uM, 8 h).
With TLGYMPTEMELLEVSQHIKMRMGG [CABP4], the protein stability index (treatment: DMSO) worked out at 2.96 ± 0.18 and the protein stability index (treatment: MLN4924 1 uM, 8 h) was 2.94 ± 0.54.
Taken in the same sequence, the figures for FPYVVLACFLVRGLLLRGAVDGIL [SLC6A17] were 2.8 ± 0.65 and 3.12 ± 1.1.
Taken in the same sequence, the figures for QLLKGRVDNISTLDSEIKKNSDGM [CD207] were 4.24 ± 0.16 and 4.23 ± 0.2.
The like results for LECVKFASHCLMNHPDLAKDLTEY [PDS5B] were, in that order, 2.62 ± 0.17 and 2.77 ± 0.78.
Consider CAGKAKRSGGHAPRVRELLLDALS [ESR2], for which the protein stability index (treatment: DMSO) is 2.38 ± 0.29 and the protein stability index (treatment: MLN4924 1 uM, 8 h) was 2.52 ± 0.25.
For YPTCGIGYPVSSAFAFQNTFPHSI [SASS6], the protein stability index was determined as 2.66 ± 0.55 (treatment: DMSO) and 2.49 ± 0.41 (treatment: MLN4924 1 uM, 8 h).
Consider EPLRSEILSGKFTILNVRDPTGAS [PTPN9], for which the protein stability index reads like this: (treatment: DMSO) 3.65 ± 0.098; (treatment: MLN4924 1 uM, 8 h) 3.58 ± 0.16.
With LQRLRENAAHLGDKRRDLAHLAAE [TRIM39], the protein stability index runs as follows: (treatment: DMSO) 4.13 ± 0.31; (treatment: MLN4924 1 uM, 8 h) 3.82 ± 0.28.
The like results for EVPLISFTGSQPTAERITQLSAPH [ALDH8A1] were, in that order, 3.86 ± 0.35 and 3.96 ± 0.43.
The like results for KKKKDKEKEKEKHKVKAEEEKKAK [BRD3] were, in that order, 5.2 ± 0.3 and 5.66 ± 0.13.
For the sequence SRVAGFNPALQLILTRTDKTLNKK [TOR1AIP2], the protein stability index (treatment: DMSO) is 4.25 ± 0.3 and the protein stability index (treatment: MLN4924 1 uM, 8 h) turned out to be 4.33 ± 0.18.
Regarding RLVLCMELANGKPQTRSGPECGLA [ADAMTSL2], the protein stability index (treatment: MLN4924 1 uM, 8 h) stood at 2.22 ± 0.53.
For the sequence DSGVGKSNLLSRFTRNEFNLESKS [RAB11A], the protein stability index (treatment: DMSO) is 4.03 ± 0.11 and the protein stability index (treatment: MLN4924 1 uM, 8 h) was found to be 4.08 ± 0.21.
